Measurements as given in publication PMC3274521, “Effects of a Non-Conservative Sequence on the Properties of β-glucuronidase from Aspergillus terreus Li-20” (PLoS ONE, 2012).

Tested on: CC1(C)[C@@H](O[C@H]2O[C@H](C(=O)O)[C@@H](O)[C@H](O)[C@H]2O[C@@H]2O[C@H](C(=O)O)[C@@H](O)[C@H](O)[C@H]2O)CC[C@]2(C)[C@H]3C(=O)C=C4[C@@H]5C[C@@](C)(C(=O)O)CC[C@]5(C)CC[C@@]4(C)[C@]3(C)CC[C@@H]12
Assay: purified protein
Settings: GL 0.375 to 4 mM, assay pH and temperature not stated for kinetics (optimum pH 6.6, 55 °C)

“AtGUS-E (AtGUS) (Aspergillus terreus NIH2624)” gave a Km of 12.9 mM, a Vmax of 1.84 µmol/min/mg and a kcat of 29 s⁻¹. For the same substance, the kcat/Km was 2240 M⁻¹ s⁻¹.
